Consider two sequences from paper PMC7089733.

This data set addresses L7Ae;Nop5;fibrillarin L113K;V223E ((printed as Pf);(printed as Pf);(printed as Pf)) (UniProt Q8U160+Q8U4M1+Q8U4M2). In words: NMR PRE + SAXS/SANS ensemble. The following applies: half-loaded mono-RNP, 50 mM NaPi, 500 mM NaCl, pH 6.6, 100% D2O (NMR), 55 C, SANS in 42%:58% D2O:H2O, substrate at 1.2-1.25 molar equivalents, scale: % [on,off] conformers.

As for “GCGAGCAAUGAUGAGUGAUGGGCGAACUGAGCUCGAAAGAGCAAUGAUGACGGAGGUGAUCACUGAGCUCGC / GUAGAUCACCUCCG [st-sR26 + substrate D]”, under “ddG vs substrate D' 0.86 +/- 0.55 kcal/mol”, the binding signal worked out at 34. In the case of “GCGAGCAAUGAUGAGUGAUGGGCGAACUGAGCUCGAAAGAGCAAUGAUGACGGAGGUGAUCACUGAGCUCGC / GCUUCGCCCAUCAC [st-sR26 + substrate D']”, the binding signal stood at 66.
